Measured values reported in US11597752B2, “Peptides and combination of peptides and scaffolds thereof for use in immunotherapy against colorectal carcinoma (CRC) and other cancers” (priority 2015, dated 2023).

Target: HLA-A*02:01 (Homo sapiens, UniProt P04439, D140Y/D185E/D98H/E176V/E277Q/G131W/G231S/I119V/I121R/I166T/I218V/L300P/L318F/N151K/N90K/P208A/P217A/Q86G/Q94H/R138H/R169H/T345S)
Experiment: MHC binding assay (UV-ligand exchange, beta2m ELISA, peptide exchange yield)
Conditions: binding to HLA-A*02:01, β2m ELISA
Excerpt: Candidate peptides for T cell based therapies according to the present invention were further tested for their MHC binding capacity (affinity). The individual peptide-MHC complexes were produced by UV-ligand exchange, where a UV-sensitive peptide is cleaved upon UV-irradiation, and exchanged with the peptide of interest as analyzed. Only peptide candidates that can effectively bind and stabilize the peptide-receptive MHC molecules prevent dissociation of the MHC complexes. To determine the yield of the exchange reaction, an ELISA was performed based on the detection of the light chain (β2m) of stabilized MHC complexes. The assay was performed as generally described in Rodenko et al. (Rodenko et al., 2006).
96 well MAXISorp plates (NUNC) were coated over night with 2 ug/ml streptavidin in PBS at room temperature, washed 4× and blocked for 1 h at 37° C. in 2% BSA containing blocking buffer. Refolded HLA-A*02:01/MLA-001 monomers served as standards, covering the range of 15-500 ng/ml. Peptide-MHC monomers of the UV-exchange reaction were diluted 100 fold in blocking buffer. Samples were incubated for 1 h at 37° C., washed four times, incubated with 2 ug/ml HRP conjugated anti-β2m for 1 h at 37° C., washed again and detected with TMB solution that is stopped with […]. Absorption was measured at 450 nm. Candidate peptides that show a high exchange yield (preferably higher than 50%, most preferred higher than 75%) are generally preferred for a generation and production of antibodies or fragments thereof, and/or T cell receptors or fragments thereof, as they show sufficient avidity to the MHC molecules and prevent dissociation of the MHC complexes.

| Substance | Peptide exchange (MHC class I binding score, peptide exchange yield) |
| --- | --- |
| 40 (ALSNVIHKV; listed as Homo sapiens) [compound 40] | “++” (≥20% = ++) |
| 178 (YLFREPATI; listed as Homo sapiens) [compound 178] | “++” (≥20% = ++) |
| 25 (SLADRLIGV; listed as Homo sapiens) [compound 25] | “++++” (≥75% = ++++) |
| 116 (LVYQFVHPI; listed as Homo sapiens) [compound 116] | “++” (≥20% = ++) |
| 160 (KLLEFDQLQL; listed as Homo sapiens) [compound 160] | “+++” (≥50 = +++) |
| 35 (KLLDLTVRI; listed as Homo sapiens) [compound 35] | “+++” (≥50 = +++) |
| 145 (LLLEVVKQV; listed as Homo sapiens) [compound 145] | “+++” (≥50 = +++) |
| 126 (TLAKYLMEL; listed as Homo sapiens) [compound 126] | “+++” (≥50 = +++) |
| 104 (ILLTIKDDTIYL; listed as Homo sapiens) [compound 104] | “+++” (≥50 = +++) |
| 182 (SLNKWIFTV; listed as Homo sapiens) [compound 182] | “++++” (≥75% = ++++) |
| 158 (GLLDPSVFHV; listed as Homo sapiens) [compound 158] | “+++” (≥50 = +++) |
| 87 (LLFDAPDLRL; listed as Homo sapiens) [compound 87] | “+++” (≥50 = +++) |
| 138 (KQFEGTVEI; listed as Homo sapiens) [compound 138] | “+++” (≥50 = +++) |
| 139 (VLLNEILEQV; listed as Homo sapiens) [compound 139] | “+++” (≥50 = +++) |
| 72 (YLLDYPNNLL; listed as Homo sapiens) [compound 72] | “+++” (≥50 = +++) |
| 157 (SLIERDLKL; listed as Homo sapiens) [compound 157] | “+++” (≥50 = +++) |
| 165 (RLLDFPEAMVL; listed as Homo sapiens) [compound 165] | “++++” (≥75% = ++++) |
| 188 (FLVDGPRVQL; listed as Homo sapiens) [compound 188] | “+++” (≥50 = +++) |
| 69 (GMLNEAEGKAIKL; listed as Homo sapiens) [compound 69] | “++” (≥20% = ++) |
| 52 (ALDSSNSMQTI; listed as Homo sapiens) [compound 52] | “++” (≥20% = ++) |
| 24 (VLDGVLMEL; listed as Homo sapiens) [compound 24] | “+++” (≥50 = +++) |
| 159 (VLVDDDGIKVV; listed as Homo sapiens) [compound 159] | “++” (≥20% = ++) |
| 89 (SLIEYEFRV; listed as Homo sapiens) [compound 89] | “+++” (≥50 = +++) |
| 91 (TVDVATPSV; listed as Homo sapiens) [compound 91] | “+++” (≥50 = +++) |
| 143 (KLSDVWKEL; listed as Homo sapiens) [compound 143] | “+++” (≥50 = +++) |

| Substance | Peptide exchange (MHC class I binding score, peptide exchange yield) |
| --- | --- |
| 146 (ALSDETWGL; listed as Homo sapiens) [compound 146] | “++” (≥20% = ++) |
| 46 (GLDDRYSLV; listed as Homo sapiens) [compound 46] | “+++” (≥50 = +++) |
| 113 (ILYDLQQNL; listed as Homo sapiens) [compound 113] | “++” (≥20% = ++) |
| 41 (ILDDSFKLL; listed as Homo sapiens) [compound 41] | “++” (≥20% = ++) |
| 137 (QLTEIKPLL; listed as Homo sapiens) [compound 137] | “+++” (≥50 = +++) |
| 79 (SLAADQLLKL; listed as Homo sapiens) [compound 79] | “++” (≥20% = ++) |
| 134 (GVAGGSILKGV; listed as Homo sapiens) [compound 134] | “++++” (≥75% = ++++) |
| 97 (ALWWGVVTV; listed as Homo sapiens) [compound 97] | “++” (≥20% = ++) |
| 119 (ILYQTVTGL; listed as Homo sapiens) [compound 119] | “++” (≥20% = ++) |
| 54 (ALLNGEYLLAA; listed as Homo sapiens) [compound 54] | “+++” (≥50 = +++) |
| 190 (AMAEMVLQV; listed as Homo sapiens) [compound 190] | “+++” (≥50 = +++) |
| 112 (KLGQVLIYL; listed as Homo sapiens) [compound 112] | “++” (≥20% = ++) |
| 99 (KLLEVDLDTV; listed as Homo sapiens) [compound 99] | “+++” (≥50 = +++) |
| 130 (GLGGSQLIDTHL; listed as Homo sapiens) [compound 130] | “++” (≥20% = ++) |
| 28 (ALTEIQEFI; listed as Homo sapiens) [compound 28] | “++++” (≥75% = ++++) |
| 67 (SLNDLEKDVMLL; listed as Homo sapiens) [compound 67] | “+++” (≥50 = +++) |
| 58 (AMADKMDMSL; listed as Homo sapiens) [compound 58] | “++” (≥20% = ++) |
| 115 (SLFDVSHML; listed as Homo sapiens) [compound 115] | “+++” (≥50 = +++) |
| 163 (RLLHEVQEL; listed as Homo sapiens) [compound 163] | “+++” (≥50 = +++) |
| 53 (FLLGSEIKL; listed as Homo sapiens) [compound 53] | “+++” (≥50 = +++) |
| 151 (SAQGSDVSLTACKV; listed as Homo sapiens) [compound 151] | “+++” (≥50 = +++) |
| 22 (GLIDEVMVL; listed as Homo sapiens) [compound 22] | “+++” (≥50 = +++) |
| 36 (GLLESPSIFNFTA; listed as Homo sapiens) [compound 36] | “+++” (≥50 = +++) |
| 125 (KLGDFGLLVEL; listed as Homo sapiens) [compound 125] | “++++” (≥75% = ++++) |
| 30 (GLSSAYGGL; listed as Homo sapiens) [compound 30] | “+” (≥10% = +) |
